Results as given in US20110097341A1 (Pfizer, published 2011).
Where a chain is given by its changes, count along the chain named. Like-named read-outs stand apart in the source and are kept apart here.

Legend:
Test in all cases: cell-based or functional assay
rat NGF [1] = target: T1, rat NGF (rat, UniProt P25427 122-241)
human NGF = human NGF (human, UniProt P01138 122-241)
rat NGF [2] = target: T1, rat NGF; remark: listed apart in the source
rat NGF [3] = target: T1, rat NGF; remark: listed apart in the source

Chain of human NGF (P01138 122-241 limits assumed): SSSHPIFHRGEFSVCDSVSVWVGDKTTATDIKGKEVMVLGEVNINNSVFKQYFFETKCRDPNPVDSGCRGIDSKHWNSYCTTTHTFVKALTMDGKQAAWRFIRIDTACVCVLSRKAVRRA
T1 sequence (P25427 122-241 limits assumed): as the sequence (P01138 122-241 limits assumed) above, with S3T, I6V, R9M, M37T, D60A, D65E, M92T, G94D, V117A, A120G counted along it

mouse antibody 911 (Fab)
IC50 (1.5 pM NGF), NGF-dependent survival of mouse E13.5 trigeminal neurons (rat NGF [1]): 34.6 pM
IC50 (15 pM NGF), NGF-dependent survival of mouse E13.5 trigeminal neurons (rat NGF [1]): 161 pM
IC50 (in the presence of 1.5 pM NGF), NGF-dependent survival of mouse E13.5 trigeminal neurons (human NGF): 63.5 pM
IC50 (in the presence of 15 pM NGF), NGF-dependent survival of mouse E13.5 trigeminal neurons (human NGF): 322 pM
concentration that totally blocked NGF-elicited survival of trigeminal neurons (human NGF): 20 nM

B1: 3C (Fab, V domains shown)
VH: QVQLQESGPGLVKPSETLSLTCTVSGFSLIGYDLNWIRQPPGKGLEWIGIIWGDGTTDYNSAVKSRVTISKDTSKNQFSLKLSSVTAADTAVYYCARGGYWYATSYYFDYWGQGTLVTVS
VL: DIQMTQSPSSLSASVGDRVTITCRASQSISNNLNWYQQKPGKAPKLLIYYTSRFHSGVPSRFSGSGSGTDFTFTISSLQPEDIATYYCQQERTLPYTFGQGTKLEIKR
IC50 (in the presence of 1.5 pM NGF), NGF-dependent survival of mouse E13.5 trigeminal neurons (human NGF): 5.6 pM
IC50 (in the presence of 15 pM NGF), NGF-dependent survival of mouse E13.5 trigeminal neurons (human NGF): 80.9 pM
IC50 (1.5 pM NGF), NGF-dependent survival of mouse E13.5 trigeminal neurons (rat NGF [2]): 6 pM
IC50 (15 pM NGF), NGF-dependent survival of mouse E13.5 trigeminal neurons (rat NGF [2]): 31.6 pM

B2: 8L2-6D5 (Fab, V domains shown)
VH: B1 VH with L34I, I50M, V63L, W101Y, A103G
VL: B1 VL with S28D, N32H, T51I, E91S, R92K
IC50 (in the presence of 1.5 pM NGF), NGF-dependent survival of mouse E13.5 trigeminal neurons (human NGF): 462 pM
IC50 (in the presence of 15 pM NGF), NGF-dependent survival of mouse E13.5 trigeminal neurons (human NGF): 1580 pM
IC50 (1.5 pM NGF), NGF-dependent survival of mouse E13.5 trigeminal neurons (rat NGF [2]): 169 pM
IC50 (15 pM NGF), NGF-dependent survival of mouse E13.5 trigeminal neurons (rat NGF [2]): 730 pM

B3: Fab E3 (Fab, V domains shown)
VH: B1 VH
VL: B1 VL with R92H
IC50 in the presence of 15 pM rat NGF, trigeminal neuron survival (rat NGF [3]): ~31.6 pM
IC50 (in the presence of 1.5 pM NGF), NGF-dependent survival of mouse E13.5 trigeminal neurons (human NGF): < 1.2 pM
IC50 (in the presence of 15 pM NGF), NGF-dependent survival of mouse E13.5 trigeminal neurons (human NGF): < 21 pM
IC50 (1.5 pM NGF), NGF-dependent survival of mouse E13.5 trigeminal neurons (rat NGF [2]): < 1.3 pM
IC50 (15 pM NGF), NGF-dependent survival of mouse E13.5 trigeminal neurons (rat NGF [2]): < 8.3 pM

B4: H19-L129 (Fab, V domains shown)
VH: B1 VH with W101Y, A103G
VL: B1 VL with E91S, R92K
IC50 (in the presence of 1.5 pM NGF), NGF-dependent survival of mouse E13.5 trigeminal neurons (human NGF): 9.6 pM
IC50 (in the presence of 15 pM NGF), NGF-dependent survival of mouse E13.5 trigeminal neurons (human NGF): 60.1 pM
IC50 (1.5 pM NGF), NGF-dependent survival of mouse E13.5 trigeminal neurons (rat NGF [2]): 6 pM
IC50 (15 pM NGF), NGF-dependent survival of mouse E13.5 trigeminal neurons (rat NGF [2]): 31 pM
